Experimental data: patent US20190381171A1, “CO-USE OF ANTI-BCMA ANTIBODY AND ANTIBODY-COUPLED T CELL RECEPTOR (ACTR) IN CANCER THERAPY AND B CELL DISORDERS” (UNUM THERAPEUTICS INC., priority 2017, published 2019)

Legend:
Assay type in all cases: cell-based, human
NCI-H929 target cells [1] = test: Cytotoxicity assay with luciferase-expressing target cells and ACTR T-cells
Method: (§1) T-cells expressing ACTR variant SEQ ID NO: 1 (effector; E) and target cells (target; T) were incubated at a 4:1, effector-to-target ratio (120,000 T cells; 30,000 target cells) with increasing concentrations of various chimeric anti-BCMA antibodies (FIG. 3, parts A and B), humanized anti-BCMA antibody clones (FIG. 5, parts A and B), or anti-BCMA antibodies derived from the NCI-murine BCMA CAR sequence shown in WO2010104949A2 (FIG. 6, parts A and B) in a 200-μL reaction volume with RPMI 1640 media supplemented with 10% fetal bovine serum. The chimeric and humanized antibodies analyzed included fucosylated and afucosylated (labeled as “SEA”) versions of the SG16.17 and SG16.45 anti-BCMA antibodies. Reactions were incubated in a CO2 (5%) incubator at 37 degrees C. for 24 or 48 hours. An equal volume of Bright-Glo luciferase assay reagent (Promega; Madison, Wis.) was added prior to a 10 minute room temperature incubation. Luminescence was measured using an EnVision Multi-label plate reader (PerkinElmer; Waltham, Mass.). The percentage of live cells was determined by dividing the luminescence signal of a given sample by the luminescence signal in the absence of antibody and multiplying by 100. The percent cytotoxicity was determined by subtracting the percentage of live cells from 100. The percentage of antibody specific cytotoxicity (%) was then plotted as a function of antibody concentration.
(§2) In FIG. 8, T-cells expressing ACTR variant SEQ ID NO: 1 (effector; E) and target cells (target; T) were incubated at a 4:1, effector-to-target ratio (120,000 T cells; 30,000 target cells) with increasing concentrations of humanized afucosylated (SEA) anti-BCMA antibody SG16.17 in a 200-μL reaction volume in RPMI 1640 media supplemented with 10% fetal bovine serum. Target-cell luminescence was measured and percent cytotoxicity was determined as in Example 3.
(§3) T-cells (effector; E) and target cells (target; T) were incubated at varying effector-to-target (E:T) cell ratios in the presence of 10 μg/mL anti-BCMA antibody (FIG. 13), in a 200-μL reaction volume in RPMI 1640 media supplemented with 10% fetal bovine serum. The antibodies included fucosylated and afucosylated (SEA) versions of the two anti-BCMA antibodies (SG16.17 and SG16.45). […] Target cell luminescence was measured and percent cytotoxicity was determined as in Example 3.
(§4) In FIG. 18, T-cells (effector; E) and target cells (target; T) were incubated at a 4:1, effector-to-target ratio (30,000 target cells) with increasing concentration of humanized afucosylated anti-BCMA antibody hSG16.17SEA in a 200-μL reaction volume in RPMI 1640 media supplemented with 10% fetal bovine serum. […] Target cell luminescence was measured and percent cytotoxicity was determined as described in Example 3.

U266B1 target cells = test: as above
Method: as §1, §2, §3, §4

NCI-H929 target cells [2] = test: Activation markers (CD25, CD69) on ACTR T-cells by flow cytometry; conditions: ACTR variant SEQ ID NO: 1, E:T 1:1, 1 μg/mL antibody, 24 hours
Method: T-cells (effector; E) and target cells (target; T) were incubated at a 1:1, effector-to-target ratio (30,000 T cells; 30,000 target cells) with 1 μg/mL of anti-BCMA antibodies in a 200-μL reaction volume in RPMI 1640 media supplemented with 10% fetal bovine serum. Reactions were incubated in a CO2 (5%) incubator at 37 degrees C. for 24 hours. Geometric Mean Fluorescence intensity (gMFI) of two activation markers, CD25 and CD69 were determined in the total CD3+ CD16+ ACTR T-cell gate via flow cytometry. Briefly, cells were washed twice in staining buffer before being stained with a Live/Dead eFluor-450 dye for 30 min at 4 degrees C. After incubating in the live/dead cell stain, cells were washed twice and incubated with 100 μL of an antibody cocktail consisting of AF488-conjugated anti-human CD3 antibody, APC-conjugated anti-human CD16 antibody, PerCP-Cy5.5-conjugated anti-human CD25 antibody, and BV510-conjugated anti-human CD69 antibody. Subsequently, cells were washed twice, fixed, permeabilized, and stained for intracellular molecules prior to detection via flow cytometry. […]
T-cells (effector; E) and NCI-H929 target cells (target; T) were incubated at varying effector-to-target ratios in the presence of 1 μg/mL hSG16.17 SEA antibody. […] The geometric mean fluorescence intensity of CD25 was calculated within the CD3+ T-cell gate and was plotted as a function of E:T ratio (FIG. 17).

[3] = T-cells expressing ACTR variant SEQ ID NO: 1, E:T 4:1, increasing antibody concentrations, 24 or 48 hours

B1: cSG16.45SEA: afucosylated (SEA) version of the chimeric SG16.45 anti-BCMA antibody (antibody, V domains shown)
VH: EVQLVESGGGLVQPGRSLKLSCVASGFTFNDHWMTWIRQAPGRGLEWISSITNTGGATYYLDSVKGRFTISRDNAKSTLYLQMNSLRSEDTATYYCTSPGLYFDYWGQGVMVTVSS
VL: EIVLTQSPTTTAASPGEKVTITCLATSSVSVMYWYQHKSGASPKLLIYSTSSLASGVPDRFSGSGSGTSYSLTINTMEAEDAATYYCHQWSSDPPTFGSGTKLEIKR
NCI-H929 target cells [1]; T-cells expressing ACTR variant SEQ ID NO: 1, 10 μg/mL anti-BCMA antibody, 24 hours
  cytotoxicity at varying E:T ratios: increased potency in comparison to the fucosylated antibodies
NCI-H929 target cells [1]; [3]
  antibody specific cytotoxicity: increased cytotoxicity when compared with the fucosylated antibodies
U266B1 target cells; T-cells expressing ACTR variant SEQ ID NO: 1, 10 μg/mL anti-BCMA antibody, 48 hours
  cytotoxicity at varying E:T ratios: increased potency in comparison to the fucosylated antibodies
U266B1 target cells; [3]
  antibody specific cytotoxicity: increased cytotoxicity when compared with the fucosylated antibodies
NCI-H929 target cells [2]
  levels of activation markers CD25 and CD69 (gMFI) on ACTR T-cells: enhanced expression of CD25 and CD69 when compared to incubations with their fucosylated counterparts
